Measured values published in paper PMC4613514.

Biological target: Keap1–mCherry (Kelch-like ECH associated protein 1 fused to mCherry) (UniProt Q9Z2X8)
Assay: FRET or BRET

UniProt Q9Z2X8, sequence (Q9Z2X8 whole entry, the tested form may be a part): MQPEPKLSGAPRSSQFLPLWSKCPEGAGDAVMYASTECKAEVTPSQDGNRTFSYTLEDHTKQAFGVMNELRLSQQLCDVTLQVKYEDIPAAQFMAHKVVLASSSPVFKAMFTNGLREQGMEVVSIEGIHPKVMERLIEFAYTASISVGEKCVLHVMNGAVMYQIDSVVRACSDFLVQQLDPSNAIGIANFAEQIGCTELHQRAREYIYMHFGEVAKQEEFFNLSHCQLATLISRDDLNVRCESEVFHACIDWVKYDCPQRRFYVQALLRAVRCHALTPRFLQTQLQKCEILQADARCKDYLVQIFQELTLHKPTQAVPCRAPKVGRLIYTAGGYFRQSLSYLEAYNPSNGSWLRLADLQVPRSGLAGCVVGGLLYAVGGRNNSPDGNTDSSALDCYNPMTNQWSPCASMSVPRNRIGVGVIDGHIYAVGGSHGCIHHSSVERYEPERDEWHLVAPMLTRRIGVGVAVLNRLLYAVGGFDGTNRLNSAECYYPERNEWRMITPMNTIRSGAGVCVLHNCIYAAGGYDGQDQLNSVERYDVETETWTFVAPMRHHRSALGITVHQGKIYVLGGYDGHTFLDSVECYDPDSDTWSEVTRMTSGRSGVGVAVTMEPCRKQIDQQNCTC

Row | Substance | E-FRET (major peak)
1 | EGFP–Nrf2 double ETGE (from UniProt Q60795 1-597) (natural protein) | 21%
2 | EGFP–Nrf2ΔDLG (from UniProt Q60795 1-597) (natural protein) | 13%
